According to the supplement of paper PMC10126150:
± gives the standard deviation of the averaged measurements.

Tested on: ATP
Experiment: switch fluorescence ratio, 500 uM ATP over buffer (Cy3 cluster intensity, sum of 5 cycles each) (fold (ratio)); higher = stronger signal-on switching upon ATP binding; sequences stand for … in TCGTCGGCAGCGTCAGATGTGTATAAGAGACAGTTTTTTTTTTTTTTTTTTTTTTTTT…TC
Conditions: aptamer strand: ATP DNA aptamer (quencher-CACCTGGGGGAGTATTGCGGAGGAAGG + anchor), 100 nM annealed; ATP concentration: 500 uM
Procedure, shortened: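 Cy3-labelled switching-strand clusters on a modified Illumina MiSeq flow-cell were annealed to 100 nM quencher-labelled ATP aptamer, imaged in selection buffer, then imaged after 15 min with 500 uM ATP at 22 °C. Five buffer/ATP cycles ran, with NaOH stripping and re-annealing between them. The fluorescence ratio is summed target-cycle over summed buffer-cycle Cy3 intensity per cluster, averaged per switch-domain sequence. Clusters outside 100-1000 RFU were excluded.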
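Also: ATP exposure 15 min at 22 °C before imaging.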

Sequence	switch fluorescence ratio
GTGTATAGAG	0.99 ± 0.051
AGGGTTGTGA	1 ± 0.026
TTGGTTCATG	0.998 ± 0.015
CCGCACGAGT	3.73 ± 0.63
GGGGGTTAAG	0.988 ± 0.029
TTTAGGGGGA	1.01 ± 0.044
AGAGGGATTA	0.999 ± 0.037
AGTTAGTGAA	0.99 ± 0.022
GATGTACAGA	1.13 ± 0.019
TTGGTACGGA	0.986 ± 0.019
GCGGCAAAAT	1.01 ± 0.041
CTTTTACTAA	1.024 ± 0.0071
GGGCATGCAG	0.966 ± 0.018
GAGAATTATG	0.9933 ± 0.0023
TGGGGAAAGA	1.01 ± 0.034
TATTGTAATG	1.04 ± 0.0081
CAATTTAGTC	0.983 ± 0.022
GGATAGCTCG	0.987 ± 0.041
CCGGCGGGGG	1.4 ± 0.56
GTAATGATTG	0.989 ± 0.014
AATATGATGT	1.05 ± 0.04
CCAAATGTCT	1.016 ± 0.0049
TAACTATATA	1.06 ± 0.014
TAAGGCGGTC	0.991 ± 0.098
ATTGAATTAG	0.961 ± 0.011
AAGAAAGGGA	1.03 ± 0.038

Sequence	switch fluorescence ratio
ATTACTTTTT	1 ± 0.027
ACGAGAAGTT	1.1 ± 0.073
TTGGCGGGAC	0.9819 ± 0.0036
GGAGGCGTTC	0.995 ± 0.013
ATGAGCGGGG	0.98 ± 0.058
TGGGTTTTGA	1.01 ± 0.033
GTGCGAACTT	1.015 ± 0.0028
ATTTGCAAAG	1.12 ± 0.21
CAGGAGACGA	1.03 ± 0.025
AGGCTTAGAC	1.04 ± 0.032
GGAAACAGGG	0.964 ± 0.02
GGGTGATTTT	0.992 ± 0.049
CTGATGTTTT	0.9747 ± 0.0063
CCTGAGGGAT	1.86 ± 1.4
TGTTGTTGGT	1.017 ± 0.00011
ACATAGTTGG	0.966 ± 0.024
CGTTGAAAGT	0.991 ± 0.015
GATGTATTTT	0.9823 ± 0.004
GTTTTAAGGT	1.017 ± 0.0067
CCTTCCTTGT	2.06 ± 0.031
GTCGTGCGTA	1.03 ± 0.099
CATTTACACT	1.05 ± 0.059
AAACGCGGAC	3.45 ± 0.49
GGAATTTCGG	1.17 ± 0.23
TAGATGGTTT	0.97 ± 0.036
AATTTAGTAG	1 ± 0.013

Sequence	switch fluorescence ratio
ACCATCGTAG	1.0191 ± 0.00047
TATCGCCCTC	1.07 ± 0.011
GGAACTTTTA	1.01 ± 0.023
CTGCTAGACC	1.21 ± 0.036
GGTGCGGCTG	1.01 ± 0.073
TACGGAAAGT	1.02 ± 0.015
TTGGGGTTTA	1.03 ± 0.026
TTATGTATGT	0.996 ± 0.017
TGTTGATAGG	0.982 ± 0.02
CCGCGGCTGG	1.154 ± 0.01
TAGGATGGGT	0.99 ± 0.017
CACTTCCTTT	1.39 ± 0.51
CGGGTTAATG	0.986 ± 0.019
CCGTCGATGG	1.1 ± 0.036
ATCTTGATTG	1.03 ± 0.016
AAAATGTGAC	1.039 ± 0.007
AGAGGCCAAC	1.002 ± 0.0062
TAAGGGTCTT	0.996 ± 0.047
TTTTGGTCGG	0.983 ± 0.022
TTACGAAAGA	1.07 ± 0.032
ATCGTATGTA	0.9708 ± 0.0055
AATAGTAAAT	0.999 ± 0.012
TATAACGGAG	1.01 ± 0.014
ATTGAAGTGC	1.01 ± 0.02
GTATAATGGG	0.973 ± 0.019
